The values below come from publication PMC7381364.

Test [1] deals with mouse IL-18 binding protein (mouse) (UniProt Q9Z0M9). The test can be described thus: SPR. In general terms: SPR reads the build-up and loss of mass on a sensor chip optically.
The target in test [2] is IL-18BP (Homo sapiens) (UniProt O95998). The settings on record: cited from earlier work.

Where only a bound is given, the exact number is not on record here.

As usually defined, the Kd is the concentration at which binding is half-saturated.

Sequence of IL-18 (Q14116 37-193): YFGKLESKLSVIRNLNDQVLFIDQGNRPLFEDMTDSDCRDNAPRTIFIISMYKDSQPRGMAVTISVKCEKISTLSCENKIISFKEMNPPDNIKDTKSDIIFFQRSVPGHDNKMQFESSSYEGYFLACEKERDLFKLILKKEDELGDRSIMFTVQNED
Sequence of IL-18BP (Homo sapiens) (O95998 31-194): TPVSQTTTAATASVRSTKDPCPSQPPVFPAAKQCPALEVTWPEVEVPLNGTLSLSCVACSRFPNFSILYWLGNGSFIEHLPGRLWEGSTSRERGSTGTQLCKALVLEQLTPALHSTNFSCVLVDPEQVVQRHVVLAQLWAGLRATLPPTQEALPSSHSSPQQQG
Sequence of mouse IL-18 binding protein (mouse) (Q9Z0M9 31-193): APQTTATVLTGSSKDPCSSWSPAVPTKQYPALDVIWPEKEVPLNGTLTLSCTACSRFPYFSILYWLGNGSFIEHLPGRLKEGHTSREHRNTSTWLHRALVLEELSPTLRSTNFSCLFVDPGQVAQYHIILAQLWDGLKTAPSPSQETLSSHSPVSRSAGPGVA

As to “decoy-resistant IL-18 variant CS2 (consensus sequence 2), DR-18 (from UniProt P70380 37-192) (ligand)”, in test [1], the Kd was more than 10 µM.
As for IL-18 (from UniProt Q14116), in test [2], the Kd was less than 0.001 µM.
